Here are results for 74 sequences from the supplement of paper PMC12636428.

The series deals with Saccharomyces cerevisiae. Nature of the series: transcriptional activation domain activity (GFP:mCherry ratio, weighted mean of sorted bins, harmonized to initial dataset scale) (arbitrary fluorescence ratio units); higher = stronger transcriptional activation. Particulars: beta-estradiol 1 µM; induction time 4 h. The method in brief:
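Activation activity, the read-weighted mean of bin median fluorescence averaged across barcodes, was linearly mapped onto the scale of the initial dataset. It was measured for barcoded protein tiles fused to an estradiol-inducible synthetic transcription factor at URA3 in GFP-reporter yeast diploids. Cultures diluted 1:5 into SC with 1 uM beta-estradiol were held 4 hours at 30 °C, sorted into 8 bins by GFP:mCherry ratio, and barcode-sequenced, and tiles under 50 reads were discarded.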
As for “HAQPRAGDSTRPQESASSSDRPADASGEGGGISKKKKAKRSAAKEEGAGAEDP”, the “transcriptional activation domain activity” value came to 37300. For the sequence “FFGVCLGFYGFSFRSNFEPGAIIHDYILFMTPSFASLCARFHIQWLLFILFIH”, the “transcriptional activation domain activity” value turned out to be 46800.

For the sequence “KVRAKEIVILPSEEDDNYKPLDTSNATTSSSEPRVDVVQEGLFREALNENDGK”, the “transcriptional activation domain activity” value was 32500. For “GTRAPAVHRDQRGPVDSQERAGEDVVRRERSVGQGRRAVRGARLVYAGAAALE” the value was 51500; for “RDRGGERDSKPRKTSGSSSNSQHADRGDTRSQKSSRRRRSSRSEHGGETSQHH”, below 6570.

As for “LRAEGLFQCNYLSYFIELTRYTFLFSMFLILLRSGWFGTSGLFLGMLWHQLVF”, the “transcriptional activation domain activity” value was determined as 37500. For “IEHKYTTQVNVFFGIVFSELLKSNTAVRGCLMVGIARVAKSGWMSGLNHIEVF” the value was 68500; for “LLFLLAHWHALAKLRMHTDSTLTLLDCATKSLGAALRDFQTKVCPAFNTHELR”, 51400; for “ADTILITMVGIFDLIACFFTCIVQVLRFKMGISVQEILIWCWFDLLIFSTSTF”, 34300. The figure for “LYMLKIVNWAVLYASLILATLLWCTIFIIYRILKVGGVTAGMRAYHRVIELLV” is 83500. Turning to “FEAKHADLIGSQKALYFQSTENIKNLLSMFTSYFSPIVDLLGHLHRVLTQVYH”, the “transcriptional activation domain activity” value was found to be 46600.

Consider “HLINEDKYQSFSIKQWLPLVYNMLFYIKEKEELVLRINSSFTLRRFVEMAAKE”, for which the “transcriptional activation domain activity” value turned out to be 50700. The figure for “SFVRDVGFFIVSASFSLVFLWDGKLYFWECVTMVGFYVFYVIFVMAWHWWLGR” is 43100; for “IGSYYGKHELYEEVRAQDKILYCTLVLPFVYFLMFLWIWYYLYCFRFFGFFYA” it is 22000. Regarding “EVRELHLIDRTLDELRTVQLTLTMLHLICAPKPVFHLLRSVVLQCAEPKGLLT”, the “transcriptional activation domain activity” value came to 46300. As for “KQYCVRPNSGRIEPGKDVEVQVLLQAMKEDPPLDAKCRDKFLVQSVAVTADKE”, the “transcriptional activation domain activity” value was 24900. As to “FLYLLSRYLGLAVHITNTVFAILVGHYQVIPVHLCRIGLVYQGAVLFVMLGIL”, the “transcriptional activation domain activity” value came to 46900. The figure for “EPERKQSRRRQSRGRGRKGVADSDTESVPRSDVSASGGRRNRQRQRQKGGKQQ” is 48900.

As to “DADSAQVAGECVVCQDEEANVVIVECGYVSLIIHLTLHRFIVLASLVISHYAQ”, the “transcriptional activation domain activity” value worked out at 63900.

Consider “FAELRRARAGCFFFFFFLFFPFFSFFYFFLLFLFLFLPPFPFLSFPFFSLCVL”, for which the “transcriptional activation domain activity” value was found to be 56100. With “GGRKRRKEREQQRERPDEEQSRPGSRDDEEGEKEGRGKGTKARKGAGGAAGKG”, the “transcriptional activation domain activity” value was 27600. The figure for “PVPAKEPAAVEAPEKEVAEEAKLEDGEIADEAKADDSAEEKPADGAAAAAAAP” is 34700; for “YSPLYLAITFAVQYGISFTSMTAVVVRTILWYRHDITWTFTLIYSSLGVAAFV” it is 63700; for “ELENQSSLYYLPIHEETPFFIDLIPNGFYLETKRSADNLFGLFTDRAIENRDP” it is 83800.

Consider “HLLDTNCLLLILKMFGLQEVTNSVVSKVDSPENNFFRYCLMNYSKNPQPMRPE”, for which the “transcriptional activation domain activity” value was 39100. The figure for “TNAENSSQPSLAQWAKGREGVLMISSDVISNVQISIGKSRLASLLISLCLQRM” is 47300; for “PAPKKRAPRKRKANAATVEGEAEDNEAEGAAAAAPPKKRARTRKAAAAAAEPS” it is 41700; for “GELYIYRLISSGLIFDTLWSLVTFGHPKGHPLPQYPCTVDMPDDFFRVRLVCV” it is 65900. For “MWGILYSLQYHQNFPFVACFLSDLFEKIIHHHFFYFSLSSFSLFLIFHFWFFF” the value was 52000; for “PELGRIVRWKWFEWTAKALFIQLYSWSLQAFLFSVGWFNRFLVRKDIVLQIIM”, 51900; for “CQWWKYLMERLLLLPPLVRVQIILLLFAFVIPKLHLHAHTLACQLVFSLNFLL”, 51200. For “YLTRHVRLFGKLFRRMQQLHATRFVTLPLSSDLILYYWSKVVQASTALPEFIA”, the “transcriptional activation domain activity” value was 51600. For “AQLTLRAIVSSKEAGVIIGKGGKNVADLRDETGVKAGVSKVVQGVHDRVLTIT” the value was 29600; for “MEACMSIMMIPMILRNGTVFSFFFRVMLYFTCIVSMAGWLVPGSYWLWFGLVC”, 48100.

Regarding “PKKEEPKRRSASRKRGSIFGGSLFGKKEEAKKEEEKPVEAAAETKAAETEAPA”, the “transcriptional activation domain activity” value was determined as 30700. On to “GMHSGDGEFVPFYAPVVVEGPVEAWLLEIEATMRVTLRKLLLGCILALKKAKK”, for which the “transcriptional activation domain activity” value came out at 61300. Turning to “ENVRGIMTENIERVLERGERIDLLVDKTGRLNVNAGEFRRRSRGLRRRMWWKN”, the “transcriptional activation domain activity” value was 37700. Regarding “MLRITLRVSIFLGYFPLFGWCAGFCFFRPFFFFFFACFRARWAFFFPSIRFFY”, the “transcriptional activation domain activity” value came to 37300. The figure for “EGEKKDQESDEKESNEEKKDDVEKLTKEMDKVTIKGEKKILGKSKGFGFVCFS” is 7730. Consider “PPPKGSDAALAAPPPPPGASGAPPPPPPKGSEAAAAAPPPPPPADASGAPPPP”, for which the “transcriptional activation domain activity” value amounted to 26100. As for “CSCSAGTRTSSSASSSAWRGASSSSSSRCSATRSSIARSRRTRSSCCARTRTC”, the “transcriptional activation domain activity” value amounted to 36200.

With “MIVMNQPNYIFDEFAIIISVYISSISNLAFYFGYDFLVLLFLQNLLEFIIMCY”, the “transcriptional activation domain activity” value turned out to be 76800. The figure for “PVPFDPPMPVDGLGFLPGDGWMDAMDDIGPLEALDLGFLPVDFWEPHFNRQWN” is 135000; for “LSLLLQDRPRFIFGFSFLLLKSIWCIGFYFINSRLKCMCILYILLIDILYFTF” it is 49800. The figure for “GHSGVSVDMHVSFLNSCREGEKVIIKSVIDKKGSRLAFVRVEIKRERDDAIII” is 49500.

Turning to “VAIFTDVKNDHLMPNFNLHDQYCNSTNHDSHNHNNTVPDSFSQLMSHLSEIDC”, the “transcriptional activation domain activity” value worked out at 27700. For “SFWNTAFHPVYFNTTDLVLSFPFLFLPSFSSFFSFLFCIVIFTIVQRLYVFIS” the value was 97000; for “MIIVLLVKVVVFNLMCKCLMVNVGRCFGEIVSCTFYFWKHILFYYLRSVVTRL”, 37700; for “NDREDDGEDEEEDNGGGGRQQRRKKGSAQRAGKLKPATESDEDEDKPEEEADD”, 29200.

For the sequence “MHHELLRPILRLGHLMWTICFWMRRIMINAESPYRKTILHVRRSNWLFRRIIT”, the “transcriptional activation domain activity” value was found to be 81600.

Regarding “VVAYGSGKEEGMKVEGEGEGGKVLRDIIDKLGHALTSTRFAGLPLPHVLAVVK”, the “transcriptional activation domain activity” value came out at 69700. For “AASWILLGFFIKQLYEEFGWAIFHVVGANPKMKTMYQWYQIMICLLKFDFFFF” the value was 48500; for “PAEAPAAEPAAATEAPAETKDEKKEEKKEEKKEKKDEKKTEKSAKVGRRLSAR”, 45100. On to “EKEEAEKKKKEEAEEKEKEKEKKEKKGGKKKRASKKSSRKSKSKEAAGSGADE”, for which the “transcriptional activation domain activity” value amounted to 25500. For “GLRNERHFVLFMAYFVLSCWCFCTLGYSYMYLSLDFTQDWPHWPGRTPFILIY” the value was 54000; for “SASPDESRRSSHRSRRDRDYEKRRDRGEERDSDHDHRRKSHSHRDRERDRGRD”, 30000. The figure for “DLEELRHLCHALKATFTHVLSIPVCSYFYFPQTSFAMILHSIMIICRWVKLST” is 35100; for “SSSEEGEDGKGKDKEKHGFRARAKSFTRRKSDAGSRAPSRTGRKRSDSTATAA” it is 24500. For “VSSSSSSSSRTRKGGGDDEEVEGKERSATENKKKKLGKKGRIAARTKEKAAAA”, the “transcriptional activation domain activity” value turned out to be 6920.

As to “VMPTWLWMPLLLVANFFCRFFLFHLIICSYIYPLLYVQLMWVFWFIWRGVFSF”, the “transcriptional activation domain activity” value was 55700. The figure for “MSNGFFLGLWVLIKRPFFFFFFHLFVMHGVLGGCWDLLVGFVCLHRGFWFLFW” is 70700. The figure for “AADADEDDEDAPKKAPKKPAKRGRKKADDDDEEPEEEAQPAKKKAKGGRKAKK” is 47700; for “MGWGGASGFSPVVGIFFFTGPLLLFLSTVFLWIQAQFFPMMVCGLFCVFWLSF” it is 60500. On to “LKSKALDAKVPIGLFTVLFFHPFLFPFCSLFPALFAPSFLFLFPLCFVTHFFL”, for which the “transcriptional activation domain activity” value worked out at 52400.

Take “MYYIIISYDYFLIILIPIIDTCYPFKDFCIIFFIYPLLLHYAIFYYLRLVFIY”: the “transcriptional activation domain activity” value was 45100. The figure for “FSWFALANIWLMFSIIIDLLPGQNIIIFGTADIICGTHWMNLVFKWIYLAFLV” is 36900.

As for “SEGLLCPLPRYPPHPIVSQLMQTSALRSLQTIVQLQRAHFMTLLFWNILLAFY”, the “transcriptional activation domain activity” value is 57100. For “MLVALCTYMIFNYYFFNFLLLFIFLYFTSYIVLSSSYSLVFISLIINSDFLFL” the value was 57500; for “GNEREQREGRREKNGRGEKGKKEERRGRKKRGGGWKRVRRENQARKQGEKGEQ”, 38100; for “KFVDLGIFKAEGTRLRCRMCGFLIASLVLCMHMSQACPMYPRYPSSNMHEHPD”, 29300. The figure for “SLVDFHKFFKWLLLKVVKGLNKLRNLHNERPKELQTNEMEHLLNLMKIVRFFA” is 46500.

“MRILFTICRYFPLLFYPFYLWAWVPVHSKELCEKLICPFGQYLCILILLCACW”: the “transcriptional activation domain activity” value was found to be 56600. The figure for “MFCLRSWLPLLFIPTNASPVFILLFFIGTYFLNRPCVYCSLLLLILFSTSCVW” is 39400. “GEEGEMSLTKDDLVELLEQDDNGWCRRSAPPARNRPVPAKPAATTNTVRASPV”: the “transcriptional activation domain activity” value is below 6570.
